Reference: publication PMC1635305 (Nucleic Acids Research, 2006)
Read-outs that look alike come from different tables or passages of the source.

Columns and labels:
[1] = biological target: the molecule itself; assay: negative-stain electron microscopy single-particle reconstruction
[2] = biological target: the molecule itself; assay: as above; remark: listed apart in the source

B1: Methanothermobacter thermautotrophicus MCM (natural protein, UniProt O27798 1-666, looked up)
chain: MMKTVDKSKTLTKFEEFFSLQDYKDRVFEAIEKYPNVRSIEVDYLDLEMFDPDLADLLIEKPDDVIRAAQQAIRNIDRLRKNVDLNIRFSGISNVIPLRELRSKFIGKFVAVDGIVRKTDEIRPRIVKAVFECRGCMRHHAVTQSTNMITEPSLCSECGGRSFRLLQDESEFLDTQTLKLQEPLENLSGGEQPRQITVVLEDDLVDTLTPGDIVRVTGTLRTVRDERTKRFKNFIYGNYTEFLEQEFEELQISEEDEEKIKELAGDPNIYEKIIRSTAPSIHGYREVKEAIALQLFGGTGKELDDKTRLRGDIHILIVGDPGIGKSQMLKYVSKLAPRGIYTSGKGTSGVGLTAAAVRDEFGGWSLEAGALVLGDKGNVCVDELDKMREEDRSAIHEALEQQTISIAKAGIMATLNSRCSVLAAANPKFGRFDSYKSIAEQIDLPSTILSRFDLIFVVEDKPDEEKDRELARHILKTHKEDHMPFEIDPELLRKYIAYARKNVRPVLTDEAMQVLEDFYVSMRASAADEDSPVPITARQLEALVRLSEASAKIKLKEHVEAEDARKAIKLSQACLKQVGYDPETGKIDIDKVEGRTPKSERDKFRLLLELIKEYEDDYGGRAPTNILITEMMDRYNVSEEKVEELIRILKDKGAIFEPARGYLKIV
stoichiometry N [1]: 14 | stoichiometry N [2]: 12
